These results are taken from article PMC9455977, “Deciphering the Regulatory Circuits of RA3 Replication Module - Mechanisms of the Copy Number Control”.

Settings in all cases: protein: recombinant; tags: N-terminal His6; chain copies: 2; label: none (ethidium bromide stain); blunt
For series [1], the target named is T1, RepA (His6-RepA) (plasmid RA3 (IncU, isolated from …, UniProt Q209K0 1-98)).
T1 sequence: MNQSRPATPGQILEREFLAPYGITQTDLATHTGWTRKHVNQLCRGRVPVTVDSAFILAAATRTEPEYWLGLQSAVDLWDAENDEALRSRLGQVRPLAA
Description: EMSA; bound at 0.1 uM RepA; 25 mM Tris-HCl pH 8.0, 5 mM MgCl2, 40 mM NaCl, 0.5 mg/mL BSA, 30 min at 37 C, 20 uL; 30 ng PCR fragment (0.8% agarose) or 150 ng ds oligo (10% native PAGE), 0.5x TBE.

Series [2] deals with T1, RepA (His6-RepA). Description: EMSA; no binding up to 4 uM RepA; 25 mM Tris-HCl pH 8.0, 5 mM MgCl2, 40 mM NaCl, 0.5 mg/mL BSA, 30 min at 37 C, 20 uL; 30 ng PCR fragment (0.8% agarose) or 150 ng ds oligo (10% native PAGE), 0.5x TBE.
The target of series [3] is T1, RepA (His6-RepA). Description: EMSA; no binding up to 4 uM RepA.

B1: IR1 (dsDNA)
DNA 1: TTGAAGTTTACCAACTAGGTTACACTTCAA
DNA 2: TTGAAGTGTAACCTAGTTGGTAAACTTCAA
Consider B1, for which, in series [1], the binding result is “binds”.

B2: IR2 (dsDNA)
DNA 1: AAACACATCATTCTGATGAGGGC
DNA 2: GCCCTCATCAGAATGATGTGTTT
In the case of B2, the binding result in series [2] was “no binding”.

B3: IR2* (dsDNA)
DNA 1: AAACAGTCGACTCTGATGAGGGC
DNA 2: GCCCTCATCAGAGTCGACTGTTT
On to B3, for which the binding result in series [3] is on record as “no binding”.
